Measured values reported in article PMC6375729.

Columns and labels:
[1] = target: BRD4 second bromodomain (BD2), D334-E460 (human) (UniProt O60885); experiment: ITC; peptide in the syringe titrated into protein in the cell; 15 °C; 50 mM HEPES pH 7.5, 150 mM NaCl; single binding site model
[2] = target: BRD4 first bromodomain (BD1), N44-E168 (human) (UniProt O60885); experiment: as above
[3] = target: BRD4 first bromodomain (BRD4/BD1) (human) (UniProt O60885); experiment: ITC; peptide titrated into BRD4/BD1 or BRD4/BD2 in the cell; 50 mM HEPES pH 7.5 (at 25°C), 150 mM NaCl, 15°C, stirring at 1,000 rpm; single-site binding model
[4] = target: BRD4 second bromodomain (BRD4/BD2) (human) (UniProt O60885); experiment: as above
[5] = target: BRD4 first bromodomain (BRD4/BD1), hexa-His tag cleaved (human) (UniProt O60885); experiment: ITC; peptide (1226 - 1433 μM) in the syringe, protein (36 - 59 μM) in the cell, 15°C, 50 mM HEPES pH 7.5, 150 mM NaCl, single binding site model
[6] = target: BRD4 first bromodomain (BD1), N44-E168 (human) (UniProt O60885); experiment: ITC; temperature series: 20 °C, 150 mM NaCl; [Protein] about 1050-1063 uM and [Peptide] 42-46 uM
[7] = target: BRD4 first bromodomain (BD1), N44-E168 (human) (UniProt O60885); experiment: ITC; salt series: 15 °C, 1000 mM NaCl; the sheet's heads give [Protein] 1042 uM and [Peptide] 42 uM
[8] = target: BRD4 first bromodomain (BD1), N44-E168 (human) (UniProt O60885); experiment: ITC; temperature series: 30 °C, 150 mM NaCl; [Protein] about 1050-1063 uM and [Peptide] 42-46 uM
[9] = target: BRD4 second bromodomain (BRD4/BD2) (human) (UniProt O60885); experiment: ITC; peptide titrated into BRD4/BD1 or BRD4/BD2 in the cell; 100 mM Na3PO4 pH 8.0, 150 mM NaCl, 15°C, stirring at 1,000 rpm; single-site binding model
[10] = target: BRD4 first bromodomain (BD1), N44-E168 (human) (UniProt O60885); experiment: ITC; salt series: 15 °C, 450 mM NaCl; the sheet's heads give [Protein] 1085 uM and [Peptide] 45 uM
[11] = target: BRD4 first bromodomain (BD1), N44-E168 (human) (UniProt O60885); experiment: ITC; temperature series: 25 °C, 150 mM NaCl; [Protein] about 1050-1063 uM and [Peptide] 42-46 uM
[12] = target: BRD4 first bromodomain (BD1), N44-E168 (human) (UniProt O60885); experiment: ITC; salt series: 15 °C, 300 mM NaCl; the sheet's heads give [Protein] 1055 uM and [Peptide] 45 uM
[13] = target: BRD4 first bromodomain (BD1), N44-E168 (human) (UniProt O60885); experiment: ITC; temperature series: 5 °C, 150 mM NaCl; the sheet's heads give [Protein] about […] and [Peptide] about 45 uM
[14] = target: BRD4 first bromodomain (BD1), N44-E168 (human) (UniProt O60885); experiment: ITC; temperature and salt series: 15 °C, 150 mM NaCl; the sheet's heads give [Protein] about 1060 uM and [Peptide] 42-51 uM
[15] = target: BRD4 second bromodomain (BD2), D334-E460 (human) (UniProt O60885); experiment: ITC; peptide titrated into protein; 100 mM Na3PO4 pH 8.0, 150 mM NaCl; single binding site model
[16] = target: BRD4 first bromodomain (BD1), N44-E168 (human) (UniProt O60885); experiment: as above
BRD4 BD2, 334-460 = BRD4 BD2, 334-460 (UniProt O60885); experiment: isothermal titration calorimetry; details: reference: H3 K9ac/K14ac peptide
BRD4 BD1, 44-168 = BRD4 BD1, 44-168 (UniProt O60885); experiment: isothermal titration calorimetry; details: reference: H3 K9ac/K14ac peptide

Kd [1] [µM]	stoichiometry N [1]	Kd [2] [µM]	stoichiometry N [2]	Kd [3] [µM]	Kd [4] [µM]	Substance	other results
25.3	0.49	87.7	0.99	87.7	25.3	ATRX K1030ac/K1033ac peptide	
34.8	0.56	45.8	0.9	45.8	34.8	E2F1 K117ac/K120ac peptide	
62.9	0.96	24.6	0.94	24.6	62.9	GATA1 K312ac/K315ac peptide	
44.4	0.87	15.8	0.52			SIRT7 K272ac/K275ac peptide	
						SRPK1 (K585acY) peptide used for ITC	Kd [5]: 9.9 µM
						SRPK1 K585ac/K588ac peptide	Kd [6]: 48.8 µM; stoichiometry N [6]: 1.14; Kd [7]: 71.4 µM; stoichiometry N [7]: 0.96; Kd [8]: 46.3 µM; stoichiometry N [8]: 1.12; Kd [9]: 29.7 µM; Kd [10]: 58.5 µM; stoichiometry N [10]: 1.01; Kd [11]: 40.2 µM; stoichiometry N [11]: 1.12; Kd [12]: 48.5 µM; stoichiometry N [12]: 1.02; Kd [13]: 49 µM; stoichiometry N [13]: 1.01; Kd [14]: 45.7 µM; stoichiometry N [14]: 1.16; Kd [15]: 29.7 µM; stoichiometry N [15]: 1.11; stoichiometry N [16]: 0.92
63.3	0.51	19.5	0.85	19.5	63.3	TOP2A K1201ac/K1204ac peptide	
						histone H3 (from UniProt P68431) H3 K9ac/pS10/K14ac peptide	binding against the reference (BRD4 BD2, 334-460; sites S10): lost; binding against the reference (BRD4 BD1, 44-168; sites S10): same
						histone H3 (from UniProt P68431) H3 K9ac/pT11/K14ac peptide	binding against the reference (BRD4 BD2, 334-460; sites T11): lost; binding against the reference (BRD4 BD1, 44-168; sites T11): lost
